B1: TSC2, untagged, full-length (transfected) (natural protein)
chain: not shown
notes: TSC2; also called untagged TSC2; source: HEK 293T, transfected, in lysate; also co-purified with TSC1-TEV-myc on anti-myc beads and released by AcTEV
B2: TSC1-TEV-myc, released from anti-myc beads by AcTEV (natural protein, UniProt Q92574 1-1164, looked up)
chain: MAQQANVGELLAMLDSPMLGVRDDVTAVFKENLNSDRGPMLVNTLVDYYLETSSQPALHILTTLQEPHDKHLLDRINEYVGKAATRLSILSLLGHVIRLQPSWKHKLSQAPLLPSLLKCLKMDTDVVVLTTGVLVLITMLPMIPQSGKQHLLDFFDIFGRLSSWCLKKPGHVAEVYLVHLHASVYALFHRLYGMYPCNFVSFLRSHYSMKENLETFEEVVKPMMEHVRIHPELVTGSKDHELDPRRWKRLETHDVVIECAKISLDPTEASYEDGYSVSHQISARFPHRSADVTTSPYADTQNSYGCATSTPYSTSRLMLLNMPGQLPQTLSSPSTRLITEPPQATLWSPSMVCGMTTPPTSPGNVPPDLSHPYSKVFGTTAGGKGTPLGTPATSPPPAPLCHSDDYVHISLPQATVTPPRKEERMDSARPCLHRQHHLLNDRGSEEPPGSKGSVTLSDLPGFLGDLASEEDSIEKDKEEAAISRELSEITTAEAEPVVPRGGFDSPFYRDSLPGSQRKTHSAASSSQGASVNPEPLHSSLDKLGPDTPKQAFTPIDLPCGSADESPAGDRECQTSLETSIFTPSPCKIPPPTRVGFGSGQPPPYDHLFEVALPKTAHHFVIRKTEELLKKAKGNTEEDGVPSTSPMEVLDRLIQQGADAHSKELNKLPLPSKSVDWTHFGGSPPSDEIRTLRDQLLLLHNQLLYERFKRQQHALRNRRLLRKVIKAAALEEHNAAMKDQLKLQEKDIQMWKVSLQKEQARYNQLQEQRDTMVTKLHSQIRQLQHDREEFYNQSQELQTKLEDCRNMIAELRIELKKANNKVCHTELLLSQVSQKLSNSESVQQQMEFLNRQLLVLGEVNELYLEQLQNKHSDTTKEVEMMKAAYRKELEKNRSHVLQQTQRLDTSQKRILELESHLAKKDHLLLEQKKYLEDVKLQARGQLQAAESRYEAQKRITQVFELEILDLYGRLEKDGLLKKLEEEKAEAAEAAEERLDCCNDGCSDSMVGHNEEASGHNGETKTPRPSSARGSSGSRGGGGSSSSSSELSTPEKPPHQRAGPFSSRWETTMGEASASIPTTVGSLPSSKSFLGMKARELFRNKSESQCDEDGMTSSLSESLKTELGKDLGVEAKIPLNLDGPHPSPPTPDSVGQLHIMDYNETHHEHS
notes: TSC1 with an AcTEV recognition site (ENLYFQG) introduced by site directed mutagenesis before the myc tag; after cleavage part of the site (ENLYFQ) would remain on TSC1; The position of the site is in Additional file 1

Assays:
[1] = target: the molecule itself; test: SEC; TSC1-TSC2 complex from cotransfected HEK 293T cells, purified on anti-myc affinity beads, released by AcTEV overnight at 4°C, Coomassie gel and Superose 6 gel filtration, fractions immunoblotted
[2] = target: B1; test: as above; conditions: both partners purified

Binder | binding result [1] | binding result [2]
B1 | binds | –
B2 | – | binds
